# In US20250109186A1:
# Read-outs that look alike come from different tables or passages of the source.
# Columns and labels:
# [1] = molecular target: SARS-CoV-2 Omicron BA.1 spike ectodomain (residues 14-1207) with C-terminal His tag (SARS-CoV-2 Omicron BA.1 subvariant)
# [2] = molecular target: SARS-CoV-2 Omicron XBB.1.5 spike ectodomain (residues 14-1207) with C-terminal His tag (SARS-CoV-2 Omicron XBB.1.5 subvariant)
# [3] = molecular target: SARS-CoV-2 Omicron BA.1 RBD (residues 316-526) with C-terminal His tag (SARS-CoV-2 Omicron BA.1 subvariant); test: SPR (Biacore S200), CM5 chip, His-tagged proteins, 1:1 model
# [4] = molecular target: SARS-CoV-2 Omicron XBB.1.5 RBD (residues 315-525) with C-terminal His tag (SARS-CoV-2 Omicron XBB.1.5 subvariant); test: as above
# [5] = molecular target: SARS-CoV-2 Omicron BA.1 RBD (residues 316-526) with C-terminal His tag (SARS-CoV-2 Omicron BA.1 subvariant)
binder,measurement,setting,value
"Nanosota-3A, HA- and His-double-tagged (VHH) VHH: QVQLQESGGGLVQAGGSLRLSCAASGSIFSPNTMGWFRQALGKQREMVAVISSIASTQYANFVKGRFTITRDNTKNTVHLQMNSLIPEDTAVYYCYAVDKSQDYWGQGTQVTVSS",EC50 (read off the curve),[1],0.1 mg/L
Nanosota-3C with His6 tag and HA tag (VHH) VHH: QVQLQESGGGLVQAGGSLRLSCAASGSIFSPNTMGWFRQALGKQREGVAFISSIASTSYWLPVKGRFTITRDNTKNTVHLQMNSLIPEDTAVYYCYAVDKSQDYWGQGTQVTVSS,EC50 (read off the curve),[2],0.03 mg/L
same,Kd,[3],0.0273 µM
same,Kd,[4],0.00204 µM
"Nanosota-3B, HA- and His-double-tagged (VHH) VHH: QVQLQESGGGLVQAGGSLRLSCAASGSIFSPNTMGWFRQALGKQREMVAFISSIASTSYANFVKGRFTITRDNTKNTVHLQMNSLIPEDTAVYYCYAVDKSQDYWGQGTQVTVSS",EC50 (read off the curve),[1],0.02 mg/L
Nanosota-3A with C-terminal His tag (VHH) VHH: QVQLQESGGGLVQAGGSLRLSCAASGSIFSPNTMGWFRQALGKQREMVAVISSIASTQYANFVKGRFTITRDNTKNTVHLQMNSLIPEDTAVYYCYAVDKSQDYWGQGTQVTVSS,Kd,[5],0.0173 µM
